How the values were obtained:
[1] = system: human iPSC cardiomyocytes; assay: iPSC-derived cardiomyocyte MEA assay, cell index; format: cell-based; details: antibodies 0.00005 to 5 μg/mL; lidocaine 3 to 100 μM
Experimental: (§1) To determine the effect of anti-DSG2 antibodies in cardiomyocytes, the cardiac in vitro proarrhythmia (CiPA) assay was performed (Sager et al. Am Heart J 2014; 167:292-300; the contents of which are herein incorporated by reference in its entirety). CiPA is envisioned to consist of four components: (1) an evaluation of the effects of test agents on cardiac ion channel assays; (2) in silico modeling of the cardiac action potential based on the ion channel results to integrate the data with cardiac function; (3) experimental measurement of test agent effects in human ventricular myocytes to confirm the modeling result; and (4) scoring the results. The multielectrode array (MEA) assay is a component of CiPA which uses human induced pluripotent stem cell (iPSC)-derived cardiomyocytes to evaluate two-dimensional excitation propagation by recording spontaneous ECG-like field potentials. The sodium spike quantified below is a measurement of the specific sodium channel current in the cardiomyocyte and is also described in Blinova K, et al. Cell Rep. 2018 Sep. 25; 24(13):3582-3592 (the contents of which are herein incorporated by reference in its entirety). […] The parameters evaluated include measuring a change in the spike in the component of electrical signal propagation (e.g. sodium spike) and cell index—a function of cell impedance and cell number. […]

[2] = system: human iPSC cardiomyocytes; assay: CiPA multielectrode array (MEA) assay, cardiomyocyte sodium spike; format: cell-based; details: voltage (μV) at 0-96 hours; antibodies/IgG 0.5 μg/mL; lidocaine 10 μM; FIG. 5
Experimental: as §1, with “The multielectrode array (MEA) assay is a component of CiPA which uses human induced pluripotent stem cell (iPSC)-derived cardiomyocytes to evaluate two-dimensional excitation propagation by recording spontaneous ECG-like field potentials.” left out, “Rep.” for “Rep. 2018 Sep. 25; 24(13):3582-3592 (the contents of which are herein incorporated by reference in its entirety).”
Commercially available anti-DSG2 antibodies were tested in the cardiomyocyte CiPA assay. […] The voltage (μV) is measured at time intervals of 0, 1 hour, 12 hours, 24 hours, 48 hours, 72 hours, and 96 hours. […]

Anti-DSG2 antibody [3] = assay: anti-DSG2 antibody MSD assay; fraction C; inhibition of the signal of anti-DSG2 antibody at 1000 ng/mL (control)
Anti-DSG2 antibody [4] = assay: anti-DSG2 antibody MSD assay; fraction C; inhibition of the signal of anti-DSG2 antibody at 200 ng/mL (control)
Anti-DSG2 antibody [5] = assay: anti-DSG2 antibody MSD assay; inhibition of the signal of anti-DSG2 antibody at 1000 ng/mL (control)
Anti-DSG2 antibody [6] = assay: anti-DSG2 antibody MSD assay; inhibition of the signal of anti-DSG2 antibody at 200 ng/mL (control)
Anti-DSG2 antibody [7] = assay: electrochemical immunoassay; blocking of anti-DSG2 antibodies (500 ng/mL) binding to DSG2 extracellular domain; fusion polypeptide 5 mg/mL as printed
[8] = system: anti-DSG2 antibodies in sera of post-COVID-19 patients; assay: Electrochemical immunoassay: blocking of post-COVID-19 patient sera binding to the DSG2 extracellular domain; set-up: species or system human; details: fusion polypeptide 10 μg/mL, post-COVID-19 patient sera 10% (v/v), FIG. 3
Experimental: DSG2 fusion polypeptides were investigated for the ability to block the binding of anti-DSG2 antibodies in sera of post-COVID-19 patients to the DSG2 extracellular domain in an electrochemical immunoassay. The fusion polypeptides were added to a final concentration of 10 μg/mL and patient sera were used at a final concentration of 10% (v/v). The results are shown in the series of bar charts in FIG. 3, where the numbers 001, 002, 003, 004, 005 and 006 indicate individual post-COVID-19 patient serum samples.
In FIG. 3, the first data series from the left is for DSG2FP #1 (described above as amino acids 49-608 of SEQ ID NO:30; Linker (IEGRMD (SEQ ID NO: 28)); amino acids 100-330 of IgG1 (SEQ ID NO: 4). The second data series from the left is for DSG2(50-602)-6xHis, which is a fusion polypeptide of DSG2 amino acids 50-602 of SEQ ID NO: 1 (complete extracellular domain) to a hexahistidine peptide tag. The third data series from the left is for a combination of fusion polypeptides which includes EC1(50-155)-6xHis, a fusion of DSG2 amino acids 50-155 of SEQ ID NO: 1 (EC1) to a hexahistidine peptide tag and EC2(151-268)-6xHis, a fusion of DSG2 amino acids 151-268 of SEQ ID NO: 1 (EC2) to a hexahistidine peptide tag. The fourth data series from the left is for EA(491-602)-6xHis, a fusion of DSG2 amino acids 491-602 of SEQ ID NO: 1 (EA) to a hexahistidine peptide tag. […]

Molecule: CCN(CC)CC(=O)Nc1c(C)cccc1C [Lidocaine, lidocaine]
- effect on cell index (in words) [1]: marked reduction in cell index and likely cell death
- effect on cardiomyocyte sodium spike [2]: dampen the sodium spike

Molecule: DSG2-GGGGS-(IgG1)Fc (Fc fusion)
- % inhibition (Anti-DSG2 antibody [3]): 85.5%
- % inhibition (Anti-DSG2 antibody [4]): 61.2%

Molecule: recombinant human desmoglein-2 Fc chimera protein, CF (R&D Systems) (Fc fusion)
- % inhibition (Anti-DSG2 antibody [5]): 88.4%
- % inhibition (Anti-DSG2 antibody [6]): 63.8%

Molecule: DSG2-EAAAK-(IgG1)Fc (Fc fusion)
- % inhibition (Anti-DSG2 antibody [3]): 85.5%
- % inhibition (Anti-DSG2 antibody [4]): 61.2%

Molecule: DSG2-GGGGS-(IgG4)Fc (Fc fusion)
- % inhibition (Anti-DSG2 antibody [7]): > 80%

Molecule: DSG2-(IgG1)Fc (Fc fusion)
- % inhibition (Anti-DSG2 antibody [3]): 81.6%
- % inhibition (Anti-DSG2 antibody [4]): 54.5%

Molecule: DSG2-(IgG4)Fc (Fc fusion)
- % inhibition (Anti-DSG2 antibody [7]): > 80%

B1: EA(491-602)-6xHis: fusion of DSG2 amino acids 491-602 of SEQ ID NO: 1 (EA) to a hexahistidine peptide tag (protein, listed as Homo sapiens)
chain: DINDNCPTLIEPVQTICHDAEYVNVTAEDLDGHPNSGPFSFSVIDKPPGMAEKWKIARQESTSVLLQQSEKKLGRSEIQFLISDNQGFSCPEKQVLTLTVCECLHGSGCREA
modifications: C-terminal 6xHis tag
- blocking activity (in words) [8]: some effectiveness in blocking activity

B2: DSG2(50-602)-6xHis: fusion polypeptide of DSG2 amino acids 50-602 of SEQ ID NO: 1 (complete extracellular domain) to a hexahistidine peptide tag (protein, listed as Homo sapiens)
chain: AWITAPVALREGEDLSKKNPIAKIHSDLAEERGLKITYKYTGKGITEPPFGIFVFNKDTGELNVTSILDREETPFFLLTGYALDARGNNVEKPLELRIKVLDINDNEPVFTQDVFVGSVEELSAAHTLVMKINATDADEPNTLNSKISYRIVSLEPAYPPVFYLNKDTGEIYTTSVTLDREEHSSYTLTVEARDGNGEVTDKPVKQAQVQIRILDVNDNIPVVENKVLEGMVEENQVNVEVTRIKVFDADEIGSDNWLANFTFASGNEGGYFHIETDAQTNEGIVTLIKEVDYEEMKNLDFSVIVANKAAFHKSIRSKYKPTPIPIKVKVKNVKEGIHFKSSVISIYVSESMDRSSKGQIIGNFQAFDEDTGLPAHARYVKLEDRDNWISVDSVTSEIKLAKLPDFESRYVQNGTYTVKIVAISEDYPRKTITGTVLINVEDINDNCPTLIEPVQTICHDAEYVNVTAEDLDGHPNSGPFSFSVIDKPPGMAEKWKIARQESTSVLLQQSEKKLGRSEIQFLISDNQGFSCPEKQVLTLTVCECLHGSGCREA
modifications: C-terminal hexahistidine tag
- blocking activity (% inhibition) ([8]; 100% inhibition = complete blocking): at least 70%

— patent US20240043495A1, “DSG2 COMPOSITIONS AND METHODS FOR THE TREATMENT OF COVID-19” (priority 2020, published 2024)
